Measured values from PMC3428728.

System: hSWI/SNF complex (FLAG-tagged) (Homo sapiens (HeLa))
Test: competition
Details: scale: fold preference over macroH2A nucleosome

20/60 H2A nucleosome was tested, and the binding signal was 9.
